Among the data in the supplement of paper PMC10567573 are protein stability index values, retold here.

± gives the standard deviation.

The nature of the data set: protein stability index of a GFP-peptide fusion (GPS, HEK-293T) (PSI 1-6); higher = more stable. The note with it: c terminus: a fixed tail appended.
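Further: 24-mer peptide tiles fused after GFP, lentivirally expressed, FACS-sorted into six equal bins by GFP/DsRed ratio, decoded by Illumina sequencing, PSI is the read-weighted mean bin number.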

Regarding TRAPQRAHEVLQELRDISSMAMEY [FBXO28], the protein stability index is, setting by setting: (treatment: DMSO) 3.44 ± 0.11; (treatment: MLN4924 1 uM, 8 h) 3.48 ± 0.3.

Turning to TRKHHCRRCGKCFCDRCCSQKVPL [ZFYVE21], the protein stability index reads like this: (treatment: DMSO) 3.31 ± 0.27; (treatment: MLN4924 1 uM, 8 h) 3.58 ± 0.19.

TRRAQADLAYQLQVAKTKQQIEEQ [FLOT1]: the protein stability index (treatment: DMSO) came to 4.82 ± 0.19 and the protein stability index (treatment: MLN4924 1 uM, 8 h) stood at 4.8 ± 0.2.

Regarding TSALFWEQHDLVYGDWTSGENSDG [CLPTM1], the protein stability index turned out to be 4.17 ± 0.18 (treatment: DMSO) and 4.34 ± 0.41 (treatment: MLN4924 1 uM, 8 h).

Turning to TSLRLVFLLAFGLMIIVCIDQWKN [RETREG3], the protein stability index was 2.21 ± 0.3 (treatment: DMSO) and 2.03 ± 0.17 (treatment: MLN4924 1 uM, 8 h).

For TSVQEADETTRSDISERPSVDDIE [C2CD2L], the protein stability index by setting is: (treatment: DMSO) 5.57 ± 0.27; (treatment: MLN4924 1 uM, 8 h) 5.61 ± 0.19.

With TVDKEVEIRKKVLKIYNKREEDFP [MNAT1], the protein stability index turned out to be 4.08 ± 0.17 (treatment: DMSO) and 4.27 ± 0.12 (treatment: MLN4924 1 uM, 8 h).

For the sequence TVILIESTNEITYGLPIMVTLMVA [CLCN6], the protein stability index by setting is: (treatment: DMSO) 3.47 ± 0.47; (treatment: MLN4924 1 uM, 8 h) 3.32 ± 0.29.

Take TVPKNDADDESETPEELEEEIPVV [GLT8D2]: the protein stability index came out at 5.63 ± 0.12 (treatment: DMSO) and 5.53 ± 0.26 (treatment: MLN4924 1 uM, 8 h).

For the sequence TVQEAATSRRARASKKTAQPWVEV [MFSD9], the protein stability index is, setting by setting: (treatment: DMSO) 3.22 ± 0.14; (treatment: MLN4924 1 uM, 8 h) 3.1 ± 0.25.

As to TYKHINEVYYAKKKRRAQQAPPQD [DYRK1B], the protein stability index is, setting by setting: (treatment: DMSO) 3.7 ± 0.085; (treatment: MLN4924 1 uM, 8 h) 3.66 ± 0.21.

With TYRKVMNWKETLVFPPEVPISEKA [STK38L], the protein stability index worked out at 3.09 ± 0.29 (treatment: DMSO) and 3.24 ± 0.29 (treatment: MLN4924 1 uM, 8 h).

For TYSGKAADVWSLGVMLYTLLVGRY [TRIB1], the protein stability index by setting is: (treatment: DMSO) 2.42 ± 0.36; (treatment: MLN4924 1 uM, 8 h) 2.21 ± 0.042.

Take VAAAAAATTAATAAATTTTTTSAA [SNAP91]: the protein stability index was determined as 5.39 ± 0.13 (treatment: DMSO) and 5.34 ± 0.068 (treatment: MLN4924 1 uM, 8 h).

Consider VALLTGKFSNIVDKFVIVDCRYPY [CDC25B], for which the protein stability index stood at 2.45 ± 1.7 (treatment: DMSO) and 2.59 ± 1.2 (treatment: MLN4924 1 uM, 8 h).

In the case of VAPPAKQAQQKKAPAKKANSTTTA [BRD3], the protein stability index stood at 5.11 ± 0.26 (treatment: DMSO) and 5.26 ± 0.13 (treatment: MLN4924 1 uM, 8 h).

For the sequence VAQFVLTEGNPRWEQTHLTYRIEN [MMP1], the protein stability index reads like this: (treatment: DMSO) 2.35 ± 0.36; (treatment: MLN4924 1 uM, 8 h) 2.35 ± 0.43.

Regarding VAVCPIPAAGLDVTQPCGDCGTIQ [HDAC6], the protein stability index (treatment: DMSO) worked out at 3.46 ± 0.24 and the protein stability index (treatment: MLN4924 1 uM, 8 h) was determined as 3.81 ± 0.41.

For the sequence VCDSCHEAITDEERAPTATFHDSK [WDFY2], the protein stability index by setting is: (treatment: DMSO) 5.02 ± 0.21; (treatment: MLN4924 1 uM, 8 h) 5.16 ± 0.13.

Take VCQEVLERSRDVVDDVSVSLRLWD [RHOBTB2]: the protein stability index is, setting by setting: (treatment: DMSO) 3.31 ± 0.19; (treatment: MLN4924 1 uM, 8 h) 3.44 ± 0.37.

Regarding VDGVWTAQRPGITHGVGLVLRVEQ [SCNN1D], the protein stability index (treatment: DMSO) amounted to 2.21 ± 0.35 and the protein stability index (treatment: MLN4924 1 uM, 8 h) was determined as 2.44 ± 0.24.

For VDRWPAPVPGKTLHLPIMGVVMKV [DENND6A], the protein stability index by setting is: (treatment: DMSO) 2.63 ± 0.39; (treatment: MLN4924 1 uM, 8 h) 2.4 ± 0.36.

Take VDYPLHDLVLHTNYTATVRGLRGP [TNXB]: the protein stability index (treatment: DMSO) amounted to 2.71 ± 0.19 and the protein stability index (treatment: MLN4924 1 uM, 8 h) was found to be 2.81 ± 0.24.

VEEGNVQTLLPAACLLQLAEIQEA [KLHL20] displayed a protein stability index (treatment: DMSO) of 3.58 ± 0.52 and a protein stability index (treatment: MLN4924 1 uM, 8 h) of 3.84 ± 0.43.

With VETLVKKKIPIISNAMLVGDKLKF [ACSBG2], the protein stability index is 2.27 ± 0.38 (treatment: DMSO) and 2.61 ± 0.27 (treatment: MLN4924 1 uM, 8 h).

Take VFITYSMDTAMEVVKFVNFLLVNG [TRAF3IP2]: the protein stability index by setting is: (treatment: DMSO) 3.39 ± 0.062; (treatment: MLN4924 1 uM, 8 h) 2.06 ± 0.64.

Sequence VGVFLDFESGSVSFLNVTKSSLIW [TRIM43] displayed a protein stability index (treatment: DMSO) of 3.08 ± 0.73 and a protein stability index (treatment: MLN4924 1 uM, 8 h) of 2.506 ± 0.003.

Sequence VIEPVVENSGILQGKLIKRQRLAK [EFHC1] returned a protein stability index (treatment: MLN4924 1 uM, 8 h) of 3.68 ± 0.65.

With VILGVTNPFFAKTLQHWPHIIRIG [DENND6A], the protein stability index (treatment: DMSO) was 2.94 ± 0.67 and the protein stability index (treatment: MLN4924 1 uM, 8 h) worked out at 2.78 ± 0.46.

Sequence VINQADVRNNRSIIKQLKDVFERD [PLD5] yielded a protein stability index (treatment: DMSO) of 3.2 ± 0.2 and a protein stability index (treatment: MLN4924 1 uM, 8 h) of 3.29 ± 0.35.

Turning to VIPFKVDTILKYLKDHFSHLLGIP [IQUB], the protein stability index turned out to be 2.92 ± 0.12 (treatment: DMSO) and 2.65 ± 0.18 (treatment: MLN4924 1 uM, 8 h).

On to VITLDPQTASRSLVLSEDRKSVRY [TRIM15], for which the protein stability index was determined as 3.44 ± 0.2 (treatment: DMSO) and 3.64 ± 0.14 (treatment: MLN4924 1 uM, 8 h).

On to VKRLLRSDAEAVSTRWEVIAEDGT [TAF7L], for which the protein stability index runs as follows: (treatment: DMSO) 3.69 ± 0.3; (treatment: MLN4924 1 uM, 8 h) 3.73 ± 0.64.

For the sequence VLALRNMKNLLFSEMWDIFLVRLL [MFSD9], the protein stability index reads like this: (treatment: DMSO) 2.13 ± 0.44; (treatment: MLN4924 1 uM, 8 h) 2.14 ± 0.49.

For the sequence VLDLSKSLSAALLTAALLTFDTGC [POMT2], the protein stability index is 3.38 ± 0.38 (treatment: DMSO) and 2.98 ± 0.2 (treatment: MLN4924 1 uM, 8 h).

Consider VLEEQLVKAKEQIENYKKQTRNGL [FUT8], for which the protein stability index amounted to 3.77 ± 0.1 (treatment: DMSO) and 3.89 ± 0.35 (treatment: MLN4924 1 uM, 8 h).

Take VLKTRMALRKTGQYSGMLDCARRI [SLC25A25]: the protein stability index (treatment: DMSO) was 2.53 ± 0.17 and the protein stability index (treatment: MLN4924 1 uM, 8 h) turned out to be 2.78 ± 0.18.

For the sequence VLLTQIESKKHQVETAFERLQQEL [TRIM15], the protein stability index reads like this: (treatment: DMSO) 2.73 ± 0.27; (treatment: MLN4924 1 uM, 8 h) 2.77 ± 0.38.

With VLSSWSRAFVSIQEEMAEDPLTYK [RHOBTB2], the protein stability index is, setting by setting: (treatment: DMSO) 2.89 ± 0.14; (treatment: MLN4924 1 uM, 8 h) 3.17 ± 0.6.

Take VLTDSEGWILIDRCGKHFGTILNY [KCTD10]: the protein stability index by setting is: (treatment: DMSO) 2.37 ± 0.59; (treatment: MLN4924 1 uM, 8 h) 2.31 ± 0.2.

VLTEPILIETYTGLMSFIGNRNKL [TPRG1] yielded a protein stability index (treatment: DMSO) of 2.21 ± 0.36 and a protein stability index (treatment: MLN4924 1 uM, 8 h) of 2.27 ± 0.51.

As to VLTIALPVPVIVSNFNYFYHRETE [KCNA1], the protein stability index is, setting by setting: (treatment: DMSO) 3.02 ± 0.47; (treatment: MLN4924 1 uM, 8 h) 3.06 ± 0.41.

Consider VLVNLVPAHKNLNKQAYDLAKALL [PDS5B], for which the protein stability index by setting is: (treatment: DMSO) 3.47 ± 0.59; (treatment: MLN4924 1 uM, 8 h) 3.07 ± 0.89.

VMAYDRYMAICKPLHELITMNRRV [OR4A15] displayed a protein stability index (treatment: DMSO) of 2.25 ± 0.35 and a protein stability index (treatment: MLN4924 1 uM, 8 h) of 2.23 ± 0.37.

For VNCISPLKYFSDFRPYFTIHDSEF [DENND6A], the protein stability index reads like this: (treatment: DMSO) 2.27 ± 0.68; (treatment: MLN4924 1 uM, 8 h) 1.92 ± 0.19.

VNEFSLKGVDFQKFCMNGAALCAL [ETS1]: the protein stability index by setting is: (treatment: DMSO) 2.32 ± 0.76; (treatment: MLN4924 1 uM, 8 h) 2.3 ± 0.033.

Consider VNLQRFGMNGQMLCNLGKERFLEL [ETS2], for which the protein stability index reads like this: (treatment: DMSO) 2.27 ± 0.36; (treatment: MLN4924 1 uM, 8 h) 2.27 ± 0.33.

The sequence VPPGVVNIVFGTGPRVGEALVSHP [ALDH8A1] showed a protein stability index (treatment: DMSO) of 2.21 ± 0.36 and a protein stability index (treatment: MLN4924 1 uM, 8 h) of 2.27 ± 0.35.

Take VQAWPFTCLPLGVLMKGQHLHLET [PRAME]: the protein stability index (treatment: DMSO) worked out at 2.58 ± 0.3 and the protein stability index (treatment: MLN4924 1 uM, 8 h) was 2.82 ± 0.39.

For VQGLMKEYLLSFPAGKTPVPAGEE [VPS39], the protein stability index was found to be 3.83 ± 0.39 (treatment: DMSO) and 3.88 ± 0.093 (treatment: MLN4924 1 uM, 8 h).

On to VQQWLQKGTPASKLILGMPTYGRS [CHIT1], for which the protein stability index reads like this: (treatment: DMSO) 2.25 ± 0.25; (treatment: MLN4924 1 uM, 8 h) 2.51 ± 0.29.

For the sequence VRFSLGTTTHAPPGVHRRYSALRE [PPFIA4], the protein stability index runs as follows: (treatment: DMSO) 2.72 ± 0.19; (treatment: MLN4924 1 uM, 8 h) 2.76 ± 0.19.

Regarding VRGEDSGRKPERRRLKTTRLKEYT [DAPK3], the protein stability index stood at 3.97 ± 0.45 (treatment: DMSO) and 4.51 ± 0.17 (treatment: MLN4924 1 uM, 8 h).
